Laboratory results published in US20130309248A1.

Assays:
[1] = target: recombinant H3 HA (A/Wisconsin/67/2005) (influenza A virus (H3N2)); test: BLI (Octet RED), biotinylated HA on streptavidin sensor, 1:1 model
[2] = target: H3 HA antigen (A/Brisbane/10/2007) (influenza A virus (H3)); test: as above
[3] = target: full-length recombinant H7 HA (A/Netherlands/219/2003) on PER.C6 cells (influenza A virus (H7N7)); test: FACS, IgG 5 µg/ml, HA-expressing PER.C6 cells; untransfected MFI 4
[4] = target: full-length recombinant H3 HA (A/Wisconsin/67/2005) on PER.C6 cells (influenza A virus (H3N2)); test: as above
[5] = target: full-length recombinant H1 HA (A/New Caledonia/20/1999) on PER.C6 cells (influenza A virus (H1N1)); test: as above

Row | Substance | Kd [1] [nM] | koff [1] [s⁻¹] | kon [1] [M⁻¹ s⁻¹] | Kd [2] [nM] | koff [2] [s⁻¹] | kon [2] [M⁻¹ s⁻¹] | MFI [3] [MFI] | MFI [4] [MFI] | MFI [5] [MFI]
1 | Fab fragment of CR8043 | 0.3 | 9.86e-05 | 408000 | 0.3 | 8.69e-05 | 312000 |  |  | 
2 | Fab fragment of CR8020 | 11.2 | 0.00208 | 203000 | 8.9 | 0.00143 | 181000 |  |  | 
3 | CR8020 (antibody) |  |  |  |  |  |  | 140 | 657 | 3
4 | CR8043 (antibody) |  |  |  |  |  |  | 11 | 646 | 4
